The results in this text go back to doi:10.1101/2025.11.27.691040 (bioRxiv, 2025).

In the test the target is T1, AtCKA1 (residues 76-409) with C-terminal 6xHis tag (Arabidopsis thaliana, UniProt Q08467 76-409).
T1 sequence (looked up): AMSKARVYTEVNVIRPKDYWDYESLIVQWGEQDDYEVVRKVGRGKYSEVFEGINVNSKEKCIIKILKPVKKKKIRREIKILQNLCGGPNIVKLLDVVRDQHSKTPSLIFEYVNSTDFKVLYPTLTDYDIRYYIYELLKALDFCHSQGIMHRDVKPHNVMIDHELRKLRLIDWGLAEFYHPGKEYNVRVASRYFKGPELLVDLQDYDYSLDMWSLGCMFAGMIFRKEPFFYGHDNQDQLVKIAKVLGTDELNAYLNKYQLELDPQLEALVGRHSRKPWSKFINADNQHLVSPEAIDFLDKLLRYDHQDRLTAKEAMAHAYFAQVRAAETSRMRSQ
The test is described as follows: SEC-MALS. For orientation: Size exclusion chromatography separates by hydrodynamic size, large species first.

B1: AtCKB1 (residues 95-287), untagged (domain or fragment, Arabidopsis thaliana, UniProt P40228 95-287, looked up)
chain: DGEDTSWISWFCNLRGNEFFCEVDDDYIQDDFNLCGLSSLVPYYEYALDLILDVESSQGEMFTEEQNELIESAAEMLYGLIHARYILTSKGLAAMLDKYKNYDFGRCPRVYCCGQPCLPVGQSDLPRSSTVKIYCPKCEDIYYPRSKYQGNIDGAYFGTTFPHLFLMTYGHLKPAKATQNYVQRVFGFKLHKP
With B1, the “stoichiometry N” value was 1 β per α (2:2, α2β2).
